{
  "source": "patent US6506587B2",
  "about": "“TRF 1 binding protein, methods of use thereof” (The Rockefeller University, priority 1998, dated 2003)",
  "key": {"tankyrase": {"target": "T1, tankyrase (Homo sapiens, UniProt O95271)", "T1 construct": "[His]6 (pFastBac HTb) (N); made in house; host or cells: SF21 insect cells (baculovirus)", "T1 sequence (O95271 1-1327)": "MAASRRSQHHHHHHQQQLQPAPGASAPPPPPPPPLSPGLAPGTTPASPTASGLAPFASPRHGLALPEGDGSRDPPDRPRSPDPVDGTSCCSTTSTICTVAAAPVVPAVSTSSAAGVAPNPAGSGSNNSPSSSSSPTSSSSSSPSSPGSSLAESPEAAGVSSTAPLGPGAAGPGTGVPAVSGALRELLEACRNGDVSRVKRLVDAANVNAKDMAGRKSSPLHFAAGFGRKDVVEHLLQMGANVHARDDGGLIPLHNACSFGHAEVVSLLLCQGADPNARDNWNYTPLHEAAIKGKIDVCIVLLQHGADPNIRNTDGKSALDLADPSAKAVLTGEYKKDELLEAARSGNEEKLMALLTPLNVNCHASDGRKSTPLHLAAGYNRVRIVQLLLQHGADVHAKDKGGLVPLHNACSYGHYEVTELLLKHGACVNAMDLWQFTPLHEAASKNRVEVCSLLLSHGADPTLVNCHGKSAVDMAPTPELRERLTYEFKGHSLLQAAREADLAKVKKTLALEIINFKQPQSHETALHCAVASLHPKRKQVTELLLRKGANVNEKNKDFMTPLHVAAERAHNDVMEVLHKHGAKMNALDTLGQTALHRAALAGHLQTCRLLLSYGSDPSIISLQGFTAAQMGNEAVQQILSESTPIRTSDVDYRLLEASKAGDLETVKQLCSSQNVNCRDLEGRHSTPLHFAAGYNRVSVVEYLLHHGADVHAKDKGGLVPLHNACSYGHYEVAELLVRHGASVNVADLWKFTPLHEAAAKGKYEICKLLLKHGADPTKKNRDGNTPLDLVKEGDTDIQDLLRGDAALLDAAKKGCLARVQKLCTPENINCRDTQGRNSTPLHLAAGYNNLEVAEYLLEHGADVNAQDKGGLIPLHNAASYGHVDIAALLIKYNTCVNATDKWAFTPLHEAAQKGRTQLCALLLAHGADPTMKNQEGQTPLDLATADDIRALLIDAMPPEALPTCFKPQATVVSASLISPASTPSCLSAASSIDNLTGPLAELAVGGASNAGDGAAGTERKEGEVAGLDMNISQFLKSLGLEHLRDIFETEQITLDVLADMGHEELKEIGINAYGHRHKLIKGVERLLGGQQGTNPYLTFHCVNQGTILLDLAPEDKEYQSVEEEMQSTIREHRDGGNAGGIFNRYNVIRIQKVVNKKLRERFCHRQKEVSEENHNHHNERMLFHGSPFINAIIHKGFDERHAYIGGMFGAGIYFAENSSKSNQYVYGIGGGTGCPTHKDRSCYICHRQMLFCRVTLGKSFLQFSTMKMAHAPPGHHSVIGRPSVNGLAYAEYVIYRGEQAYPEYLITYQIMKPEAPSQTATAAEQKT", "assay": "PARP assay with baculovirus-derived tankyrase and [32P]NAD+", "assay_type": "biochemical", "conditions": "1 mM 3AB; 4 μg tankyrase, without or with 4 μg TRF1; 1.3 μM [32P]NAD+", "experimental": "Reactions containing 4 μg tankyrase (+), without (−) or with (+) 4 μg TRF 1, and 1.3 μM [^32P]NAD^+ were incubated without (−) or with (+) 1 mM 3AB and processed as in FIG. 9A.\nPARP assays were performed with baculovirus-derived tankyrase essentially as described in [Simonin et al. 268:8529 (1993)] but without addition of DNA. To make baculovirus-derived protein, an N-terminally [His]6-tagged fusion protein of human tankyrase was generated in the expression vector pFastBac HTb (Gibco BRL, Grand Island) and used to generate a recombinant plasmid in DH10Bac E. coli. The recombinant DNA was used to transfect SF21 insect cells and recombinant virus was isolated and amplified. Protein was purified as described for baculovirus-derived TRF1 [Bianchi et al., EMBO J. 16:1785 (1997)]. Samples containing tankyrase (0-4 μg) and TRF1 (0-4 μg) [Bianchi et al., EMBO J. 16:1785 (1997)] were incubated for 30 minutes at 25° C. in 0.1 ml of assay buffer containing 50 mM Tris-HCl (pH 8.0), 4 mM Mg Cl2, 0.2 mM dithiothreitol (DTT), 1.3 μM [^32P]NAD+ (4 μCi) and varying concentrations of unlabeled NAD+ (0-1 mM). Reactions were stopped by the addition of 20% trichloroacetic acid (TCA). Acid-insoluble proteins were collected by centrifugation, rinsed in 5% TCA, suspended in Laemmli loading buffer, and fractionated on SDS-PAGE. Proteins were visualized by Coomassie-Blue stain and autoradiography. […]"}, "TRF1 [1]": {"target": "T2, TRF1 (Homo sapiens, UniProt P54274)", "T2 construct": "expressed in transfected cells; host or cells: yeast strain L40", "assay": "Yeast two-hybrid analysis, β-galactosidase assay", "assay_type": "cell-based", "conditions": "with amino-terminal acidic domain of TRF1 (LexAd68-C); 12.0 units with GAD lacking tankyrase sequences; average of three transformations", "experimental": "(§1) Proteins were immunoprecipitated with an unrelated rabbit serum as a control (C) (lanes 1 and 4), anti-tankyrase antibodies (tankyrase) (lanes 2 and 6) or anti-TRF1 antibody 371 (TRF1) (lanes 3 and 5). Samples were processed, suspended in Laemmli buffer and divided in half. One set was not heated (left panel) and the other was heated at 100° C. for 5 min (right panel). Proteins were fractionated on 10% SDS-PAGE, transferred to nitrocellulose and probed with anti-TRF1 antibody 371 (left panel) or anti-tankyrase antibodies (right panel). […] The values represent an average of three independent transformations. Values<0.01 are indicated by 0.\n(§2) TR1L-4 and TR1L-12 were isolated from a human liver two-hybrid cDNA library (Clontech) created in pGad10. The library was screened with human full length TRF1 cDNA fused to LexA (LexA-TRF1) [Bianchi et al., EMBO J., 16:1785-1794 (1997)] in the yeast strain L40 as described [Hollenberg et al., Mol. Cell Biol., 15:3813-3822 (1995)]. Two-hybrid analysis was performed as described by Bianchi et al. [EMBO J., 16:1785-1794 (1997)]. β-galactosidase assays for the two-hybrid analysis was performed as described by Bianchi et al. [EMBO J., 16:1785-1794 (1997)].", "T2 sequence (P54274 1-67)": "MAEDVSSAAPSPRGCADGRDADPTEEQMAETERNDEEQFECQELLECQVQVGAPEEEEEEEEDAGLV"}, "TRF1 [2]": {"target": "T3, TRF1 (Homo sapiens, UniProt P54274)", "T3 construct": "expressed in transfected cells; host or cells: yeast strain L40", "T3 sequence (P54274 67-439)": "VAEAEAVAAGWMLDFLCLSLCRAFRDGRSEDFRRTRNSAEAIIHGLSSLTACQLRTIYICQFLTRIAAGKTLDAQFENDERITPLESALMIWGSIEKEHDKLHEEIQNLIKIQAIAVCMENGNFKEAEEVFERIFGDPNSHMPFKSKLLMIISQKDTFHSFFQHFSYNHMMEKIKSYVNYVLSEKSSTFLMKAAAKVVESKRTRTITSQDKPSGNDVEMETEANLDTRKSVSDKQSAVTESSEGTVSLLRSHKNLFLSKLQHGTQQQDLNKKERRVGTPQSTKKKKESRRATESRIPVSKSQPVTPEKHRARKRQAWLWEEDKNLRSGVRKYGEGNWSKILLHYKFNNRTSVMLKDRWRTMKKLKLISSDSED", "assay": "Yeast two-hybrid analysis, β-galactosidase assay", "assay_type": "cell-based", "conditions": "ΔN66-LexA (deletion of the acidic domain of TRF1)", "experimental": "as §1, §2"}, "TRF1 [3]": {"system": "TRF1", "assay": "Gel-shift assay for TTAGGG repeat binding activity of TRF1", "assay_type": "biochemical", "experimental": "The Gel-shift assay for the TTAGGG repeat binding activity of TRF1 used a duplex [TTAGGG]12 DNA as a probe. Binding reactions contained the components indicated above the lanes. Tankyrase was varied from 2.5 to 200 ng per 20 μl incubation in three-fold dilution steps (triangles). TRF1 was either present at 13 ng (+) or varied from 120 to 13 ng in three-fold dilution steps (triangle). NAD^+ was at 0 (−) or 0.2 mM (+). The asterisks indicate the position of TRF1-containing complexes as determined by antibody super-shift experiments.\nGel-shift assays were performed using an end-labeled 142 bp Hindlll-Asp718 fragment from plasmid pTH12 [Z. Zhong, et al, Mol. Cell. Biol. 12:4834 (1992)] containing 12 tandem TTAGGG repeats. Baculovirus-derived TRF1 (13 to 120 ng) [Bianchi et al. EMBO J. 16:1785 (1997)] was incubated for 30 minutes at room temperature in a 20 μl reaction containing 20 mM Hepes-KOH (pH 7.9), 100 mM KCL, 0.5 mM DTT, 5% glycerol, 0.1% NP40, 100 ng sheared E. coli DNA, 100 ng β-casein, and 1 ng of labeled probe. In some cases, reactions were supplemented with NAD^+ (0.2 mM) and baculovirus-derived human tankyrase (2.5 to 200 ng). Samples were fractionated on a 0.7% agarose gel run in 0.1× TBE (8.9 mM Tris-base, 8.9 mM Boric acid, and 0.2 mM EDTA) at 130 volts for 1 hour at room temperature. Gels were dried onto Whatman DE81 paper and autoradiographed."}},
  "note": "“Also recorded” adds a separate entry of the source.",
  "data": [
    {"molecule": "NC(=O)c1cccc(N)c1", "note": "[3AB, 3-aminobenzamide]", "values": [
      {"measurement": "Modification (ADP-ribosylation) of TRF1 and tankyrase by tankyrase", "setting": "tankyrase", "value": "strongly inhibited; also recorded: inhibited"}
    ]},
    {"molecule": "GAD-tankyrase: 10-ANK repeat domain of TR1L-12 (ANK repeats 9-19) fused to the GAL4 activation domain (protein, left off: large carriers) FTPLHEAASKNRVEVCSLLLSHGADPTLVNCHGKSAVDMAPTPELRERLTYEFKGHSLLQAAREADLAKVKKTLALEIINFKQPQSHETALHCAVASLHPKRKQVTELLLRKGANVNEKNKDFMTPLHVAAERAHNDVMEVLHKHGAKMNALDTLGQTALHRAALAGHLQTCRLLLSYGSDPSIISLQGFTAAQMGNEAVQQILSESTPIRTSDVDYRLLEASKAGDLETVKQLCSSQNVNCRDLEGRHSTPLHFAAGYNRVSVVEYLLHHGADVHAKDKGGLVPLHNACSYGHYEVAELLVRHGASVNVADLWKFTPLHEAAAKGKYEICKLLLKHGADPTKKNRDGNTPLDLVKEGDTDI", "values": [
      {"measurement": "β-galactosidase levels (lacZ reporter activation)", "setting": "TRF1 [1]", "value": 50.4, "unit": "units"},
      {"measurement": "Interaction with TRF1 lacking the acidic domain", "setting": "TRF1 [2]", "value": "abolished"}
    ]},
    {"molecule": "tankyrase: human TRF1-binding protein of SEQ ID NO:2 with ANK repeats, SAM motif and PARP-related domain; recombinant, baculovirus-derived (protein) MAASRRSQHHHHHHQQQLQPAPGASAPPPPPPPPLSPGLAPGTTPASPTASGLAPFASPRHGLALPEGDGSRDPPDRPRSPDPVDGTSCCSTTSTICTVAAAPVVPAVSTSSAAGVAPNPAGSGSNNSPSSSSSPTSSSSSSPSSPGSSLAESPEAAGVSSTAPLGPGAAGPGTGVPAVSGALRELLEACRNGDVSRVKRLVDAANVNAKDMAGRKSSPLHFAAGFGRKDVVEHLLQMGANVHARDDGGLIPLHNACSFGHAEVVSLLLCQGADPNARDNWNYTPLHEAAIKGKIDVCIVLLQHGADPNIRNTDGKSALDLADPSAKAVLTGEYKKDELLEAARSGNEEKLMALLTPLNVNCHASDGRKSTPLHLAAGYNRVRIVQLLLQHGADVHAKDKGGLVPLHNACSYGHYEVTELLLKHGACVNAMDLWQFTPLHEAASKNRVEVCSLLLSHGADPTLVNCHGKSAVDMAPTPELRERLTYEFKGHSLLQAAREADLAKVKKTLALEIINFKQPQSHETALHCAVASLHPKRKQVTELLLRKGANVNEKNKDFMTPLHVAAERAHNDVMEVLHKHGAKMNALDTLGQTALHRAALAGHLQTCRLLLSYGSDPSIISLQGFTAAQMGNEAVQQILSESTPIRTSDVDYRLLEASKAGDLETVKQLCSSQNVNCRDLEGRHSTPLHFAAGYNRVSVVEYLLHHGADVHAKDKGGLVPLHNACSYGHYEVAELLVRHGASVNVADLWKFTPLHEAAAKGKYEICKLLLKHGADPTKKNRDGNTPLDLVKEGDTDIQDLLKGDAALLDAAKKGCLARVQKLCTPENINCRDTQGRNSTPLHLAAGYNNLEVAEYLLEHGADVNAQDKGGLIPLHNAASYGHVDIAALLIKYNTCVNATDKWAFTPLHEAAQKGRTQLCALLLAHGADPTMKNQEGQTPLDLATADDIRALLIDAMPPEALPTCFKPQATVVSASLISPASTPSCLSAASSIDNLTGPLAELAVGGASNAGDGAAGTERKEGEVAGLDMNISQFLKSLGLEHLRDIFETEQITLDVLADMGHEELKEIGINAYGHRHKLIKGVERLLGGQQGTNPYLTFHCVNQGTILLDLAPEDKEYQSVEEEMQSTIREHRDGGNAGGIFNRYNVIRIQKVVNKKLRERFCHRQKEVSEENHNHHNERMLFHGSPFINAIIHKGFDERHAYIGGMFGAGIYFAENSSKSNQYVYGIGGGTGCPTHKDRSCYICHRQMLFCRVTLGKSFLQFSTMKMAHAPPGHHSVIGRPSVNGLAYAEYVIYRGEQAYPEYLITYQIMKPEAPSQTATAAEQKT", "values": [
      {"measurement": "TRF1 DNA binding activity on [TTAGGG]12 probe", "setting": "TRF1 [3]; NAD+ included (0.2 mM), tankyrase 2.5 to 200 ng per 20 μl, TRF1 13 ng", "value": "drastic reduction"},
      {"measurement": "TRF1 DNA binding activity on [TTAGGG]12 probe", "setting": "TRF1 [3]; NAD+ included (0.2 mM), tankyrase 2.5 to 200 ng per 20 μl, TRF1 13 ng, listed as Tankyrase", "value": "inhibition"},
      {"measurement": "TRF1 DNA binding activity on [TTAGGG]12 probe", "setting": "TRF1 [3]; absence of NAD+, effect also seen with total insect cell protein (non-specific)", "value": "slight stimulation"}
    ]}
  ]
}
